This is an account of results in US7605133 (PANACEA PHARMACEUTICALS, dated 2009).

Assay [1] concerns the target T1, NAC portion of α-synuclein (approx. amino acids 61-87) (human, UniProt P37840 61-87).
T1 construct: range 61-87; also called α-synuclein 61-87 peptide
Description: phage display selection.

For assay [2], the target named is α-synuclein (recombinant, wildtype) (human, UniProt P37840 1-140). The experiment in a line: cell-based or functional assay.
For assay [3], the target named is T1, NAC portion of α-synuclein (approx. …). Description: phage display selection with the α-synuclein 121-131 and 61-87 peptides as the bait.

Ends that are not written are not given here.

As to SLKRLPK (also called the peptide), in assay [1], the binding result was “binds”. Also, in assay [2], the “inhibition of iron-induced α-synuclein aggregation in vitro, densitometric quantification, 10-fold excess of the peptide” value worked out at 38%.
Turning to WPFHHHR (7-mer from phage display), in assay [1], the binding result is recorded as “binds”.
For the molecule THIHHPS (7-mer from phage display), in assay [1], the binding result is recorded as “binds”.

B1: phage containing the SLKRLPK (SEQ ID NO: 7) peptide (peptide)
chain: SLKRLPK
modifications: also: displayed on phage coat protein
notes: also called SLKRLPK phage; not shown: phage coat protein that carries the 7-mer (New England Biolabs phage display kit); neither the protein nor any linker is
As to B1, the binding result in assay [3] is on record as “binds”.
For HLYHHKT (7-mer from phage display), in assay [1], the binding result is “binds”.
RLRGRNQ (7-mer from phage display): in assay [1], the binding result is recorded as “binds”.
